Test results published in patent US20160002326A1.

Assays:
rabbit IL-17 (rabbit) [1] = assay: Biacore SPR, 3 experiments; unit not printed in Table 10
rabbit IL-17 (rabbit) [2] = assay: cell-based or functional assay
mouse IL-17 (mouse) = mouse IL-17 (mouse) (UniProt Q62386); assay: assay not stated (Table 5, 'Source And Binding Information')
Chain of mouse IL-17 (mouse) (Q62386 26-158 limits assumed): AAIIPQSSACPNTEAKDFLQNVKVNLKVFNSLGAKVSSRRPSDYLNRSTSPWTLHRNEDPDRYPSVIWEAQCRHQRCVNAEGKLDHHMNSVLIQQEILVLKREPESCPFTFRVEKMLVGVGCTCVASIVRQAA

Chain of ABBV-257 anti-human TNF and IL-17 DVD-Ig binding protein (bispecific antibody) (heavy): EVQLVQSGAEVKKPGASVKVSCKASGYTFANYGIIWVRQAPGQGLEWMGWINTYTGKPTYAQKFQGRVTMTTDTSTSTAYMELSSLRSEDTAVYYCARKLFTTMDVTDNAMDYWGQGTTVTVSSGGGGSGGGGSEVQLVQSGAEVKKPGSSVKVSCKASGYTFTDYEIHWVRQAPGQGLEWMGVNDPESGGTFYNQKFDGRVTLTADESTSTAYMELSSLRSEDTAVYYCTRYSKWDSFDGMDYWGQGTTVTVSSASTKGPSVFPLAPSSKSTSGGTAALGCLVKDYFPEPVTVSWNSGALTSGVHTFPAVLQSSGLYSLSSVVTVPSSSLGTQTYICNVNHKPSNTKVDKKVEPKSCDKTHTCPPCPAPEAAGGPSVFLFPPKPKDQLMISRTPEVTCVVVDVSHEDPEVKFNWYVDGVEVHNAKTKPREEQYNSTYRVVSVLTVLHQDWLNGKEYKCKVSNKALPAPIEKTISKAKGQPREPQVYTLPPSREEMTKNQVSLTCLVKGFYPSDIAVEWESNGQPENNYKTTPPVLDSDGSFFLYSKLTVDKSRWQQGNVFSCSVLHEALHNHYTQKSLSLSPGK
Chain of ABBV-257 anti-human TNF and IL-17 DVD-Ig binding protein (bispecific antibody) (light): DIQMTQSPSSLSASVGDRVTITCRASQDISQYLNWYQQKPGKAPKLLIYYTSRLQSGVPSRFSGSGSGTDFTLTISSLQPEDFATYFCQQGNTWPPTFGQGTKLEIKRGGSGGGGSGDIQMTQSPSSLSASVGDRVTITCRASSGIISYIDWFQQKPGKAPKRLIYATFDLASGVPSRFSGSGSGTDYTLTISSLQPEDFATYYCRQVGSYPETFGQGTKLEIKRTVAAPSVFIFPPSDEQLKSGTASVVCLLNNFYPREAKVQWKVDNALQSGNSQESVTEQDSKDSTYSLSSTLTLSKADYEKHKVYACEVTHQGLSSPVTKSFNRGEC

| Substance | Kd (rabbit IL-17 (rabbit) [1]) [nM] | IC50, in vitro neutralization assay (In-Vitro Potency) (rabbit IL-17 (rabbit) [2]) [nM] | IC50 (mouse IL-17 (mouse)) [nM] |
| --- | --- | --- | --- |
| ABBV-257 anti-human TNF and IL-17 DVD-Ig binding protein (bispecific antibody) | 3.3 | 11.4 |  |
| MAB421 anti-IL-17 antibody |  |  | 0.7 |
